Results as given in the DeepSol protein solubility set.

Assay: soluble on expression in E. coli; label from the status in PepcDB or PDB records

Sequence | soluble on expression in E. coli
METIVQKFGGTSVGSVERIQHVANLIIEEYERGHSIVSVVSAMGKSTDELVALANAITENPSKREMDMLLSTGEQVTISLLTMALQAKGYHAISLTGWQAGITTESVHSSARITDIHTDRIQSYLAEGTIVIVAGFQGVSEDFEITTLGRGGSDTTAVALAAALKAKKCDIYTDVTGVYTTDPRVVKDAYKLDEISYDEMLELANLGAGVLHPRAVEFAKNHNVVLEVRSSMEQENGTIVKGECNMEQQSIVKGIAFEDNITRVTIKGLEQGSLSTVFSTLAAAHINVDIIIQSITNEGTVHLSFSIHSNDLRETLEVLEQNQEALHYEAVEYENHLAKVSIVGSGMVSNPGVAANMFTTLKEEDIHIKMVSTSEIKVSVVIDRLHLVTGVEALHQSFMAKIEPFVQMS | not soluble
METKDLIVIGGGINGAGIAADAAGRGLSVLMLEAQDLACATSSASSKLIHGGLRYLEHYEFRLVSEALAEREVLLKMAPHIAFPMRFRLPHRPHLRPAWMIRIGLFMYDHLGKRTSLPGSTGVRFGADSVLKPEIVRGFEYSDCWVDDARLVLANAQMVVRKGGEVLTRTRATAARRENGLWIVEAEDIDTGKKYVWQARGLVNATGPWVKQFFDEGMHLPSPYGIRLIKGSHIVVPRVHNQKQAYILQNEDKRIVFVIPWMEEFSIIGTTDVEYKGDPKAVKIEESEINYLLKVYNAHFQKQLGRDDIVWTYSGVRPLCDDESDSPQAITRDYTLDIHDENGKAPLLSVFGGKLTTYRKLAEHAMEKLASYYPGIGPAWTKTCVLPGGDIDGSREDYAAKLRRRYPFLTESLARHYSRTYGSNTEWILGEATSLLDLGEDFGHEFYEAELKYLVDHEWVRRTEDAIWRRTKEGMWLTAEQQSRITQWLAAYVEKHQLSMASLEHHHHHH | soluble
METKKTLREGYTTGSCATVATKAALTALITGQVQAEATIRLPIGRVVTFSLASCSFDGETATASVVKDGGDDPDATHGALIVSTVSWTSSPGVHIDGGEGVGRVTKPGLPVPVGEAAINPVPRQMIREAVNEVLAQYGLHRGVKVVISVPGGEEIAKKTLNPRLGIIGGISILGTRGIVVPFSTAAYRASIVQALQVAKANGCRHVVITTGGRSEKYAMQEYPHLPEEAFIEMGDFVGFTLKQCKRLGIKMVSMVGMMGKFSKVAQGVMMVHSKSAPVDFGFLAAIAEQAGACPELVAAVRGANTAAQVGDMMQEAGCTKFFELLCEACCQAALHEVGGGLTVATSIYTMNGQRLGKAVQTDGDDEVDRCRC | not soluble
METPQTGYQVKTYNVPVKRYCQTLDLRDSPELIAEYRKRHSQAEVWPEILAGIREVGILEMEIYILGTRLFMIVETPVDFDWDTAMARLNTLPRQQEWEEYMSILQQAAPGMSSAEKWIPMERMFHLYNT | not soluble
METRTYAIGVEATMDVIGGKWKPIILCNLRHGAMRPSDLKRGITGISQKMLTQQLRELEEDNIIERKVYNQVPPKVEYYLSDYGQSLSAVLDNLCNWGESHVAHLQEQGQEIYLKCED | not soluble
MEVAVEKAVAAAAAASAAASGGPSAAPSGENEAESRQGPDSERGGEAARLNLLDTCAVCHQNIQSRAPKLLPCLHSFCQRCLPAPQRYLMLPAPMLGSAETPPPVPAPGSPVSGSSPFATQVGVIRCPVCSQECAERHIIDNFFVKDTTEVPSSTVEKSNQVCTSCEDNAEANGFCVECVEWLCKTCIRAHQRVKFTKDHTVRQKEEVSPEAVGVTSQRPVFCPFHKKEQLKLYCETCDKLTCRDCQLLEHKEHRYQFIEEAFQNQKVIIDTLITKLMEKTKYIKFTGNQIQNRIIEVNQNQKQVEQDIKVAIFTLMVEINKKGKALLHQLESLAKDHRMKLMQQQQEVAGLSKQLEHVMHFSKWAVSSGSSTALLYSKRLITYRLRHLLRARCDASPVTNNTIQFHCDPSFWAQNIINLGSLVIEDKESQPQMPKQNPVVEQNSQPPSGLSSNQLSKFPTQISLAQLRLQHMQQQVMAQRQQVQRRPAPVGLPNPRMQGPIQQPSISHQQPPPRLINFQNHSPKPNGPVLPPHPQQLRYPPNQNIPRQAIKPNPLQMAFLAQQAIKQWQISSGQGTPSTTNSTSSTPSSPTITSAAGYDGKAFGSPMIDLSSPVGGSYNLPSLPDIDCSSTIMLDNIVRKDTNIDHGQPRPPSNRTVQSPNSSVPSPGLAGPVTMTSVHPPIRSPSASSVGSRGSSGSSSKPAGADSTHKVPVVMLEPIRIKQENSGPPENYDFPVVIVKQESDEESRPQNANYPRSILTSLLLNSSQSSTSEETVLRSDAPDSTGDQPGLHQDNSSNGKSEWLDPSQKSPLHVGETRKEDDPNEDWCAVCQNGGELLCCEKCPKVFHLSCHVPTLTNFPSGEWICTFCRDLSKPEVEYDCDAPSHNSEKKKTEGLVKLTPIDKRKCERLLLFLYCHEMSLAFQDPVPLTVPDYYKIIKNPMDLSTIKKRLQEDYSMYSKPEDFVADFRLIFQNCAEFNEPDSEVANAGIKLENYFEELLKNLYPEKRFPKPEFRNESEDNKFSDDSDDDFVQPRKKRLKSIEERQLLK | soluble
MEVEYMNFNELNLSDNILNAIRNKGFEKPTDIQMKVIPLFLNDEYNIVAQARTGSGKTASFAIPLIELVNENNGIEAIILTPTRELAIQVADEIESLKGNKNLKIAKIYGGKAIYPQIKALKNANIVVGTPGRILDHINRGTLNLKNVKYFILDEADEMLNMGFIKDVEKILNACNKDKRILLFSATMPREILNLAKKYMGDYSFIKAKINANIEQSYVEVNENERFEALCRLLKNKEFYGLVFCKTKRDTKELASMLRDIGFKAGAIHGDLSQSQREKVIRLFKQKKIRILIATDVMSRGIDVNDLNCVINYHLPQNPESYMHRIGRTGRAGKKGKAISIINRREYKKLRYIERAMKLKIKKLKFG | soluble
MEVFVFTPKGDLYKMPKGATVLDFAFAIHSKLGSKCIGAKVNGKNAQLKQTLNSGLEHHHHHH | not soluble
MEVKELERDKNRVVLEYVFGAEEIAQAEDKAVRYLNQRVEIPGFRKGRIPKNVLKMKLGEEFQEYTLDFLMDLIPDTLKDRKLILSPIVTERELKDVTARVVVEVHEEPEVRIGDISKIEVEKVDEEKVLEKYVERRIEDLRESHALLEPKEGPAEAGDLVRVNMEVYNEEGKKLTSREYEYVISEDEDRPFVKDLVGKKKGDVVEIEREYEGKKYTYKLEVEEVYKRTLPEIGDELAKSVNNEFETLEQLKESLKKEGKEIYDVEMKESMREQLLEKLPEIVEIEISDRTLEILVNEAINRLKREGRYEQIVSSYESEEKFREELKERILDDIKRDRVIEVLAQEKGISVNDEELEKEAEELAPFWGISPDRAKSLVKARQDLREELRWAILKRKVLDLLLQEVKVKVVEPKGEGDDSEGKEDNLEHHHHHH | soluble
MEVPKNPYESTWTGYDFYYEKEPKKVPPSAGSGKMPAFQSIASISTDRESPEDPGNSGYLASGAESGPKKTTSKPATTPTPEPTTTPVEEEKVKVSPSSSTKDPSKLHKTTKTPVTITNIISTTTAPPAPSRAPENDPESGSDQSESTDNLDLLYGGGSSATATGEDKKARHSTTNNPNFCTDPPKLHDPPPPHPSAPQNLLTQLIQKKKDAPNKGSSEKSSKWSDDHASGYPEGSAPSAEPSENQYEQDGSIPSSNDYKELTDVPGTKPSSSASRGSNMAGNPTAPLTTTQHTFAPNSTETSRSSTSRGKAPGTEPKSEARYSSQNPYSDNSSTQKPEYESGYPAVSGANSRAQIPNITDYTKPSAVSIEYASSSKERSDPPFSTPLTSNSQHVLTQPRPRDYEDGPQETTRTKASGTKSPNSLQAPQQTAAHLMKNARAPGPEPSLHSTTTHHVQTPIITIAPKFSEPSPYAENIMLTPKQAPGTEPRSNSQNPQTDRLASQSGYESGGPGRPQNVSIRHRENPKGSDAISRTAITPSKIDYFAPSSPTGPIGYERQVPSFKEGPDHQYTKYSTLNSPPAPSPQESSTITHHVSTSPDFLEPSSESSVLLPKQAPGTNPSTSNSPPGYSELIGPSGPESQGYEPMGNNGPSIFEGPGTESGYSEPKALSTASQKTKPDDKPYEIPRSIEPSNSKPYPSDSSWSDHDNAPGSEPSYIPDVLDYGARANNHAGKMMNMSHATSPSTGSPSNSNNAISARDPYDHFGTITAPSDIPRANSNFEEYPDDGGYDGTNDVAIVPLRTQHGTNPSTITTTNTQVRAQISEIDRIAESFENSAREPVEYEQRITSESSKGITAVTGKDFMKKLGRKSPTCCSCCDEKQSVSRNIETQADPLHVQHAVDPSRQLVESEPVQNFVPLQNTVGGNAYIQPQPVAQQQTIYQQPFQQYQPQYPQSYQQPSCGCQPQPQNCCAPPAPCCLPTIPCCPPIPCCPQPKICCQPAPVCLPPPTCCSINFKLPTIPICGRACPSCPCRRRMHKSRRLKRHSINSNCHQCSSAGEPWRSVLHHREKRAAPGCTSGFSTMSQNSCGTCGASNLRSPRVKRMGCLPCLGRKKRDTDENSHIRVKRMGCLPCLGRKKRSTLSQSGCSQCNSMGHLFNRYKRSLFGGCSPCAPQQPCGCGRKKRSVTMKLVKRAPMQCDSTCCDFSRCPYRQKKEALVPFM | not soluble
MEVTNGLNLKDTELRLGLPGAQEEQQLELSCVRSNNKRKNNDSTEESAPPPAKTQIVGWPPVRSNRKNNNNKNVSYVKVSMDGAPYLRKIDLKMYKNYPELLKALENMFKFTVGEYSEREGYKGSGFVPTYEDKDGDWMLVGDVPWDMFSSSCQKLRIMKGSEAPTAL | not soluble
MEWGVRFYVLSKQEWKQQTIDRCGQFYCLVPSNAGFHVYLFVTMDTGENAVFVFPPHFFIRYRERYWGKHSTLSGKILRKTYLKDNLVMRYGLQPGSEERVTGARIYSASSHGVALGIVLNDEAYLFKTFITYAMTKGEQIPLYMQEKLSMERAQVEYYNTGRLADLVELEERDRKRREMLMAEERRREEKEKRRAAEPGEAYFYVEGPLTLIMPDEEIQEENTGFWQRGTTMFCDSKLIEESQREMRELASVEARIQELKNIPQKAEEKKGVFKRLFGRYF | not soluble
MEYKSPVYGIIAVPIEKIESNDYNPNAVAPPEMQLLYKSIKEDGYTMPIVCYYNEEKDKYIIVDGFHRYRVMLENEDIYDRENGLLPVSVIDKSLDERMASTIRHNRARGSHNVDLMSKIITELCEIGKSDEWISKHLGMEVDEILRLKQITGLAYLFKDKEFGNAWIPFGSDIEEEN | not soluble
MEYLDEIKTLGLKPNTITYSMLMLASERKDDFEVSFKLLSQAKGDGVSPNLIMCRCITSLCKRRFEKACAGGEPVVSFKSGRPQIENKWTSMALMVYRETISGGTVPTTEVVSQVLGCLQLPHDAALRDRLISTLGINISSQKQHNIFPLVDGFGEYDPRAFSLLEEATSLGVLPSVSFNKIPLFFDTTELPKNVAEVYLLTIFKGLKHRLAAGAKIPHINLIISIQEKEIRTPEGEKTIDLTGRVGQEIGALLRRGFKIIASTIRKPNQSSATQHSTREPVT | not soluble
MFARAPFVRLLSTTSRNLAEAEKKVSKEALMALRKKTGYSYVNCRKALIQFGENDMDSAVKWLKEAAAKEGWAKAAKLGTRVTSNGLVSVVTDNSTAAVVELSCETDFVARSGAFKDLLSNISNSVLAKAKPQSISSGSKLQEFTYDLGDLTDSDGKNMREVLSLSIGKLGENMTVRRVKAFKAPEGTTLFGASHPKDGTDDIPMGRFISLIALNQSSPGSISSQQLAGQICQHIIGMSPESLGEAAESVKTQEGLRSQEGHDPNADPVVVTNIDESETALLRQAFMLNPSQSVHEYLKSHNANILDFVRVELGSE | not soluble
MFCTSEAAVDMDSGRGDIRRLKDGEILKYTSGIFSSKWKKMYAVLFSDSRLVWFENRGDRKPKGSVLLKDVIPYICVGLMTDRMPVKRPNVPEGNSVHHLVGIGMNPKADPCHWILFSSDSDIESWFTEITKTLPKPANPPPNAPQQGPGAQPPQQQNNGGYVPPTVYPSAPPPVQPGYNPRPASGQSYPSGPQVPPAYGQYPQPGYPQPAGVPTSSHTTVIVRDGGYGGGGYGGYGGGGGGFGSTGLGFGSGILAGSLLGYGLGSMWGGHHSYGGWGGGYGGGGYGMAGGYYSDNDTTVTNNYYNYGDNDNNGGNNHSSSSNAITDAPGNAGDQSQQQSDNNYGNANQDSYDQGNDYGNDYGNAGYDSGDFGGGDYGGGGYDSGDFGGGDFGGGDFGGGDFGGGDY | not soluble
